Experimental data reported in PMC8230527, “Structural and Biochemical Characterization of a Dye-Decolorizing Peroxidase from Dictyostelium discoideum” (International Journal of Molecular Sciences, 2021).

Columns and labels:
Experiment in all cases: purified protein
Assay type in all cases: biochemical, Dictyostelium discoideum
purified protein [1] = substrate: CCn1c(=NN=c2sc3cc(S(=O)(=O)O)ccc3n2CC)sc2cc(S(=O)(=O)O)ccc21; conditions: 1 mM H2O2, 50 mM sodium acetate pH 4.0, 150 mM NaCl, 25 °C
purified protein [2] = substrate: COc1ccc(CO)cc1OC; conditions: 1 mM H2O2, 50 mM sodium acetate pH 4.0, 150 mM NaCl, 25 °C
purified protein [3] = substrate: Nc1c(S(=O)(=O)O)cc(Nc2ccc(S(=O)(=O)O)c(Nc3nc(Cl)nc(Cl)n3)c2)c2c1C(=O)c1ccccc1C2=O; conditions: 1 mM H2O2, 50 mM sodium citrate pH 3.0, 150 mM NaCl, 25 °C

B1: Dictyostelium DyPA (Dictyostelium discoideum) (protein)
chain: MAQSTVLPMHCLYGIFLEGNLKIQKNDQEGLKKFKDNIKKFTLELDEIDKISPQSRIGGAICFSSDIWDTVTKKISKPKELKSVNTLSSYMPGTSQRDILIHIISDRMDTCFKLAQDTMRNFGEDQLDIKQEIHGFRRVEERDLTDFIDGTENPDGDELRTQYGLVAAGQPNEFGSYVFTQRYVHNLKKWYPEPLSVQQDTVGRTKKDSIEIPRDKRPITSHVSRTDLSENGKDLKIVRQSLPYGQITGEKGLMFIAYACSLHNIEKQLQSMFGQLDGKHDLLLKYTTPVTGSFYFAPSKKELLEL
notes: recombinant from E. coli Rosetta(DE3)pLysS, heme-reconstituted with hemin; homodimer
Protein B1 has a Km (purified protein [1]) of 4100 ± 400 µM, a kcat (purified protein [1]) of 89.9 ± 4.3 s⁻¹ and a kcat/Km (purified protein [1]) of 21900 M⁻¹ s⁻¹. The Km (purified protein [2]) was 166 ± 58 µM, the kcat (purified protein [2]) was 0.000338 ± 3.5e-05 s⁻¹ and the kcat/Km (purified protein [2]) was 2.03 M⁻¹ s⁻¹. It also gave a Km (purified protein [3]) of 40 ± 10 µM, a kcat (purified protein [3]) of 5.2 ± 0.38 s⁻¹ and a kcat/Km (purified protein [3]) of 130000 M⁻¹ s⁻¹.
